Molecular target: rabbit muscle actin (rabbit) (UniProt P68135)
Assay: SPR; Biacore X100; rabbit muscle actin (10 ug/ml) covalently coupled to a CM5 chip by EDC/NHS, control lane without actin subtracted; formin fragments injected at 12.3 nM to 1 uM (1:3 serial dilution), 120 s injection, 600 s dissociation, 30 ul/min, 25 degrees; running buffer 10 mM HEPES pH 7.4, 150 mM NaCl, 3 mM EDTA, 10 mM MgCl2, 0.2 mM ADP, 0.5 mM DTT

- Kd: 54.9 nM
Sequence: SYMBIOTIC FORMIN 1 (SYFO1) FH1FH2 domain (domain or fragment)

Source: PMC8231094
